# Experimental data reported in patent US20130071357A1, “IDENTIFICATION, PROLIFERATION IN SITU, HARVESTING, SEPARATION, AND TRANSPLANTATION OF ADULT-DERIVED REGENERATIVE PLURIPOTENT TRANSITIONAL BLASTOMERE-LIKE STEM CELLS AND METHODS OF TREATMENT THEREOF” (HEYGEN, LLC, priority 2011, published 2013).
# Assays:
# [1] = system: adult pluripotent epiblast-like stem cells; assay: induction of epiblast-like stem cells in culture; type: cell-based, rat; conditions: ELSCs
# [2] = system: adult totipotent blastomeric-like stem cells; assay: induction of blastomeric-like stem cells in culture; type: cell-based, rat; conditions: BLSCs
# Excerpt: 1961; Rohme 1981; Young and Black, 2005a].
# FIG. 7. Blastomeric-like stem cells (BLSCs) harvested from male Sprague-Dawley out bred rat 0001 and propagated from a single cell derived by serial dilution clonogenic analysis, then genomically labeled with LacZ to synthesize the beta-galactosidase gene product. Clone designated as Scl-44beta. […] B-L is phase contrast microscopy to show unstained cells in field of view. […] Original magnification 200×.
# FIG. 8. Blastomeric-like stem cells (BLSCs) harvested from male Sprague-Dawley out bred rat 0001 and propagated from a single cell derived by serial dilution clonogenic analysis, then genomically labeled with LacZ to synthesize the beta-galactosidase gene product. Clone designated as Scl-44beta.
molecule,measurement,setting,value
"brain-derived neurotrophic factor: lineage-induction agent (protein, UniProt P23560 19-247, looked up) Neurotrophic factor BDNF …: APMKEANIRGQGGLAYPGVRTHGTLESVNGPKAGSRGLTSLADTFEHVIEELLDEDQKVRPNEENNKDADLYTSRVMLSSQVPLEPPLLFLLEEYKNYLDAANMSMRVRRHSDPARRGELSVCDSISEWVTAADKKTAVDMSGGTVTVLEKVPVSKGQLKQYFYETKCNPMGYTKEGCRGIDKRHWNSQCRTTQSYVRALTMDSKKRIGWRFIRIDTSCVCTLTIKRGR",response to lineage-induction agent,[1],forming cells belonging to the ectodermal lineage
same,response to lineage-induction agent,[2],forming cells belonging to the ectodermal lineage
